# Data published in US7439329B2, “GEF-H1b: biomarkers, complexes assays and therapeutic uses thereof” (Sugen, Inc., priority 2002, dated 2008).
# B1: GEF-H1S: novel GEF-H1 splice isoform, residues 1-921, lacking N-terminal zinc finger domain (SEQ ID NO. 2) (protein)
# chain: MPVTRASQPRKPSSAQQQKAALLKNNTALQSVSLRSKTTIRERPSSAIYPSDSFRQSLLGSRRGRSSLSLAKSVSTTNIAGHFNDESPLGLRRILSQSTDSLNMRNRTLSVESLIDEAEVIYSELMSDFEMDEKDFAADSWSLAVDSSFLQQHKKEVMKQQDVIYELIQTELHHVRTLKIMTRLFRTGMLEELHLEPGVVQGLFPCVDELSDIHTRFLSQLLERRRQALCPGSTRNFVIHRLGDLLISQFSGPSAEQMCKTYSEFCSRHSKALKLYKELYARDKRFQQFIRKVTRPAVLKRHGVQECILLVTQRITKYPLLISRILQHSHGIEEERQDLTTALGLVKELLSNVDEGIYQLEKGARLQEIYNRMDPRAQTPVPGKGPFGREELLRRKLIHDGCLLWKTATGRFKDVLVLLMTDVLVFLQEKDQKYIFPTLDKPSVVSLQNLIVRDIANQEKGMFLISAAPPEMYEVHTASRDDRSTWIRVIQQSVRTCPSREDFPLIETEDEAYLRRIKMELQQKDRALVELLREKVGLFAEMTHFQAEEDGGSGMALPTLPRGLFRSESLESPRGERLLQDAIREVEGLKDLLVGPGVELLLTPREPALPLEPDSGGNTSPGVTANGEARTFNGSIELCRADSDSSQRDRNGNQLRSPQEEALQRLVNLYGLLHGLQAAVAQQDTLMEARFPEGPERREKLCRANSRDGEAGRAGAAPVAPEKQATELALLQRQHALLQEELRRCRRLGEERATEAGSLEARLRESEQARALLEREAEEARRQLAALGQTEPLPAEAPWARRPVDPRRRSLPAGDALYLSFNPPQPSRGTDRLDLPVTTRSVHRNFEDRERQELGSPEERLQDSSDPDTGSEEEGSSRLSPPHSPRGETLAETWTRDFTRMQDIPEETESRDGEAVASES
# What was measured:
# Format in all cases: cell-based, mouse
# NIH-3T3 cells [1] = test: In vitro transformation (foci) assay
# NIH-3T3 cells [2] = test: Anchorage independent survival and proliferation (XTT assay); settings: over-expression in NIH-3T3; vessels which prevent adherence
# Protocol: A stably expressing clone designated 192.58 containing GEF-H1S was established in the mouse fibroblast cell line, NIH-3T3. The pRSV/Rc subcloned vector expresses the GEF-H1S protein in tissue culture cells.
# The GEF-H1S clones were plated in tissue culture vessels which prevent adherence. […] The ability for cells to proliferate was measured using the tetrazolium salt XTT based assay (Roche Molecular Biochemicals Cat# 1465015) which measured only metabolically active cells in culture. Measurements were made over a time course.
# NIH-3T3 cells [3] = test: Morphology and localization in transfected NIH-3T3 cells (EGFP fluorescence, F-actin and microtubule staining)
# Protocol: To analyse the effect of GEF-H1 on cell morphology in fibroblasts, EGFP (enhanced green fluorescent protein) fusion constructs of GEF-H1S and a series of mutant alleles of the PAK4 phosphorylation sites in GEF-H1S were introduced into NIH-3T3 cells. Also constructed, was a dominant negative allele by mutating the DH domain of GEF-H1 resulting in GEF-H-QR312,313MG. In a p21-binding domain (PBD) assay this dominant-negative allele inhibited accumulation of Rac-GTP but not Cdc42-GTP in NIH-3T3 cells. The actin cytoskeleton was stained with coumarin-phallicidin to contrast F-actin structures of EGFP fluorescing cells by microscopy.
# Induction of F-actin structures in fibroblasts, namely the formation of filopodia, lamellipodia, and stress fibres is due to signalling by the active forms of Cdc42, Rac, and Rho, respectively. Because PAK proteins and specifically PAK4 play a role in regulating F-actin based morphological structures, experiments were devised to determine whether PAK4-induced changes in cell morphology were mediated by regulation of GEF-H1S. Also co-expressed were EGFP-GEF-H1 constructs with various HA epitope-tagged PAK4 alleles in NIH-3T3 cells. Exogenous PAK4 was detected with an anti-HA antibody (red) and the actin cytoskeleton was stained with coumarin-phallicidin (blue). Although NIH-3T3 cells have low but detectable levels of endogenous PAK4 and GEF-H1 these were not activated under the conditions of the experiment.
# Residues phosphorylated by PAK4 in GEF-H1S are conserved in the MT (“microtubule”) bound form of GEF-H1, “GEF-H1M.” GEF-H1M contains a zinc finger domain in its amino terminus that allows it to bind to microtubules. The role microtubule binding in determining the ability of PAK4 to control GEF-H1M activity was investigated. Studies were performed with GEF-H1M that allowed simultaneous examination of both MT (through EGFP-GEF-H1M labelling of MTs in vivo) and actin cytoskeleton (through F-actin staining with coumarin-phallicidin). Also studied, were changes in the MT cytoskeleton by co-staining with β-tubulin antibodies.
# GEF-H1S alleles were transiently expressed in NIH-3T3 cells or simultaneously expressed with PAK4 alleles. The GEF-H1S alleles were retrieved from the pcDNA vector by restriction with EcoR1 and Xho1 and inserted into pEGFP-C1 (Clontech,USA Cat#6082-1) restricted with EcoR1 and Sal1. The resulting protein was a hybrid of the brightly fluorescent protein, green fluorescent protein (GFP). The effects on cell morphology were traced by staining of F-actin with coumarin phallacidin (Molecular Probes, USA, Cat. # C-606). […] See, Callow et al., 2002. This finding was consistent with GEF-H1S being a substrate for PAK4, because activated PAK4 is also localized to the Golgi apparatus.
# NIH-3T3, 293T, A549, HCT116 and H1299 cells were maintained in Dulbecco's modified Eagles medium (DMEM) 10% Fetal Bovine serum (FBS), penicillin and streptomycin from Invitrogen (Carlsbad, Calif.). For transfection, cells were seeded at 10^5 cells ml-1 for NIH-3T3 and […] for both 293T and H1299 unless otherwise stated. Transfection reagents Lipofectamine 2000 (Invitrogen) or Fugene (Roche Molecular) were used at […] of plasmid DNA. Cellular extracts for immunoblotting were prepared in lysis buffer. For immunoprecipitation experiments lysates were incubated with Protein G beads (Pharmacia) linked with appropriate antibody, glutathione sepharose beads (Pharmacia) with appropriate GST fusion protein and streptavidin beads (Pierce) linked to appropriate biotinylated peptides. For immunofluorescence, coverslips were placed in 24 well cell culture vessels and seeded at the densities above. Transfections took place after 16 h and unless otherwise stated were maintained in Optimem or DMEM with 0.2% FBS for 24 h until fixation. Microscopy was performed on a Nikon E800 microscope with 60× objective (1.5NA). […]
# [4] = GEF-H1 allele alone, majority of transfected cells
# [5] = co-expressed with PAK4 allele PAK4
# [6] = co-expressed with PAK4 allele PAK4K350,351A
# [7] = co-expressed with PAK4 allele PAK4S474E
molecule,measurement,setting,value
B1,foci induction,NIH-3T3 cells [1]; NIH-3T3 cells,able to induce foci
same,effect on foci in co-transformation with activated Ras,"NIH-3T3 cells [1]; co-transformation with activated Ras, titrations",synergizes with activated Ras
same,anchorage independent survival and proliferation,NIH-3T3 cells [2],anchorage independent
same,F-actin,NIH-3T3 cells [3]; [4],occassional stress fibers
same,Microtubule,NIH-3T3 cells [3]; [4],radial array
same,cell morphology,NIH-3T3 cells [3]; [4],polarized
same,subcellular localization,NIH-3T3 cells [3]; GFP fusion transiently expressed in NIH-3T3 cells,localized at the perinuclear region of the Golgi apparatus
same,F-actin,NIH-3T3 cells [3]; [5],extreme filopodia
same,Microtubule,NIH-3T3 cells [3]; [5],radial array
same,cell morphology,NIH-3T3 cells [3]; [5],contracted
same,F-actin,NIH-3T3 cells [3]; [6],stress fibers
same,Microtubule,NIH-3T3 cells [3]; [6],radial array
same,cell morphology,NIH-3T3 cells [3]; [6],elongated
same,F-actin,NIH-3T3 cells [3]; [7],peripheral lammellipodia
same,Microtubule,NIH-3T3 cells [3]; [7],disorganized
same,cell morphology,NIH-3T3 cells [3]; [7],polarized
